The substances below were run against Cas8f:Cas5f heterodimer (Xanthomonas albilineans, type I-F Cascade subunit) (Xanthomonas albilineans) (assay: ITC; 25°C; AcrIE4-F7 (250 μM) injected into Cas8f:Cas5f (35 μM) in the cell; 20 mM Tris-HCl pH 7.5, 150 mM NaCl, 1 mM TCEP).

| Substance | Kd [nM] |
| --- | --- |
| AcrIE4-F7 (natural protein) | 26 |
| AcrIE4-F7^CTD (C-terminal domain of AcrIE4-F7, residues 53-119) (domain or fragment) | 13 |

Each substance was assayed against (His)6-MBP-tagged Cas8e (P. aeruginosa, type I-E) (P. aeruginosa (PRD-10 genomic DNA)) (assay: ITC; 25°C; 20 μM of either AcrIE4-F7 or (His)6-MBP tagged Cas8e in the cell, titrated with 150-200 μM of the partner, both directions; 20 mM HEPES pH 7.0, 150 mM NaCl, 1 mM TCEP, 5% glycerol; triplicate).

| Substance | Kd [nM] | dH [kcal/mol] | stoichiometry N |
| --- | --- | --- | --- |
| AcrIE4-F7 (natural protein) | 200 | -14.7 | 1 |
| AcrIE4-F7(D30K/E31K) (natural protein) | 4800 | -11.1 | 0.8 |

Continued, values first:

| Kd [nM] | dH [kcal/mol] | stoichiometry N | Substance |
| --- | --- | --- | --- |
| 400 | -22.8 | 0.8 | AcrIE4-F7(E12K/D13K) (natural protein) |
| 190 | -12.8 | 0.9 | AcrIE4-F7(E38K/D39K) (natural protein) |
| 430 | -11.7 | 1 | AcrIE4-F7(E46K) (natural protein) |
| 3500 | -5.6 | 1.1 | AcrIE4-F7(Y20A) (natural protein) |
| 140 | -18.1 | 0.8 | AcrIE4-F7^NTD (N-terminal domain of AcrIE4-F7, residues 1-52) (domain or fragment) |
